Columns and labels:
[1] = target: human protein Axl expressed on cells (SN12C human renal tumor cells; CHO-Axl cells) (human) (UniProt P30530); experiment: flow cytometry, labelling of SN12C cells treated 24 h with 9G4 at 10 µg/ml
[2] = target: human protein Axl expressed on cells (SN12C human renal tumor cells; CHO-Axl cells) (human) (UniProt P30530); experiment: flow cytometry, labelling of untreated (No Ab) SN12C cells
[3] = target: human protein Axl expressed on cells (SN12C human renal tumor cells; CHO-Axl cells) (human) (UniProt P30530); experiment: QIFIKIT quantitative flow cytometry on NCI-H226 cells (NSCLC)
[4] = target: human protein Axl expressed on cells (SN12C human renal tumor cells; CHO-Axl cells) (human) (UniProt P30530); experiment: QIFIKIT quantitative flow cytometry on A172 cells (glioblastoma)
[5] = target: human protein Axl expressed on cells (SN12C human renal tumor cells; CHO-Axl cells) (human) (UniProt P30530); experiment: QIFIKIT quantitative flow cytometry on MDA-MB-231 cells (breast)
[6] = target: human protein Axl expressed on cells (SN12C human renal tumor cells; CHO-Axl cells) (human) (UniProt P30530); experiment: QIFIKIT quantitative flow cytometry on SN12C cells (renal)
[7] = target: human protein Axl expressed on cells (SN12C human renal tumor cells; CHO-Axl cells) (human) (UniProt P30530); experiment: QIFIKIT quantitative flow cytometry on MDA-MB-435S cells (breast)
[8] = target: human protein Axl expressed on cells (SN12C human renal tumor cells; CHO-Axl cells) (human) (UniProt P30530); experiment: QIFIKIT quantitative flow cytometry on PC3 cells (prostate)
[9] = target: human protein Axl expressed on cells (SN12C human renal tumor cells; CHO-Axl cells) (human) (UniProt P30530); experiment: QIFIKIT quantitative flow cytometry on A431 cells (epidermoid carcinoma)
[10] = target: human protein Axl expressed on cells (SN12C human renal tumor cells; CHO-Axl cells) (human) (UniProt P30530); experiment: QIFIKIT quantitative flow cytometry on MCF7 cells (breast)
[11] = target: human protein Axl expressed on cells (SN12C human renal tumor cells; CHO-Axl cells) (human) (UniProt P30530); experiment: QIFIKIT quantitative flow cytometry on Calu-1 cells (lung)
[12] = target: human protein Axl expressed on cells (SN12C human renal tumor cells; CHO-Axl cells) (human) (UniProt P30530); experiment: QIFIKIT quantitative flow cytometry on NCI-H125 cells (NSCLC)
[13] = target: human protein Axl expressed on cells (SN12C human renal tumor cells; CHO-Axl cells) (human) (UniProt P30530); experiment: QIFIKIT quantitative flow cytometry on DU-145 cells (prostate)
[14] = target: human protein Axl expressed on cells (SN12C human renal tumor cells; CHO-Axl cells) (human) (UniProt P30530); experiment: Qifikit (Dako) quantitative flow cytometry on SN12C human renal cancer cells
[15] = target: human protein Axl expressed on cells (SN12C human renal tumor cells; CHO-Axl cells) (human) (UniProt P30530); experiment: QIFIKIT quantitative flow cytometry on Panc1 cells (pancreas)
[16] = target: monkey Axl receptor expressed on the surface of COS7 cells (African green monkey); experiment: flow cytometry on COS7 cells, goat anti-mouse Alexa 488
[17] = target: monkey Axl receptor expressed on the surface of COS7 cells (African green monkey); experiment: flow cytometry titration on COS7 cells
[18] = target: T1, human protein Axl expressed on cells (SN12C human renal tumor cells; CHO-Axl cells) (human, UniProt P30530 26-894); experiment: flow cytometry on SN12C cells, goat anti-mouse Alexa 488
T1 construct: also called membrane Axl receptor; cell-surface Axl
T1 sequence: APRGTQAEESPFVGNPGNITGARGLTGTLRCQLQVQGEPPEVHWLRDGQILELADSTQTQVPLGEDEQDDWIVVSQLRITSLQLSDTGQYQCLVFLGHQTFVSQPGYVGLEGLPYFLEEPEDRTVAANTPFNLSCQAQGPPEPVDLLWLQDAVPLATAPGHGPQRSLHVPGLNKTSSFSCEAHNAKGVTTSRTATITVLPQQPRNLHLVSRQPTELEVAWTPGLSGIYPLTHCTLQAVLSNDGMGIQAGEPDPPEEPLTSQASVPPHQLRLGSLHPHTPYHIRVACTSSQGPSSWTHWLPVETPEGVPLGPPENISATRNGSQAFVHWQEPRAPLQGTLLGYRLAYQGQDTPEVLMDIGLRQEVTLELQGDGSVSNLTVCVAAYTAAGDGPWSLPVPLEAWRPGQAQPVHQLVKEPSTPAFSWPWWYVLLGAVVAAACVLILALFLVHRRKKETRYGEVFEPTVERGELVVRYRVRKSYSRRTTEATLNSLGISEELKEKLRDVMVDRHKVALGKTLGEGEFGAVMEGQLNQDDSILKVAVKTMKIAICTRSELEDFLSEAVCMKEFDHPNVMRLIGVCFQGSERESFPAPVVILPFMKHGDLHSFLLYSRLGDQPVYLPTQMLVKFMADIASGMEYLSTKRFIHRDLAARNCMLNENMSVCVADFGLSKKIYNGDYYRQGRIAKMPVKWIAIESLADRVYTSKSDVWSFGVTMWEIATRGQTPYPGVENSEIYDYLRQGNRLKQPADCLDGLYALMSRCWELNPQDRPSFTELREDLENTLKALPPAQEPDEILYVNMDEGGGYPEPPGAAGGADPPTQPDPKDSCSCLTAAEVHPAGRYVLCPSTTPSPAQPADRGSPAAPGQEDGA

Work on 9G4 (mIgG1 isotype control antibody) yielded an MFI at T24 h [1] of 13 MFI and an MFI at T24 h [2] of 11 MFI.

“MAB154 anti-Axl commercial antibody (R and D Systems)” gave an ABC (Qifikit) [3] of 32100 ABC, an ABC (Qifikit) [4] of 52400 ABC and an MFI at T24 h [2] of 950 MFI. The ABC (Qifikit) [5] was 61200 ABC, the ABC (Qifikit) [6] was over 100000 ABC and the ABC (Qifikit) [7] was 17800 ABC. The ABC (Qifikit) [8] was 8420 ABC, the ABC (Qifikit) [9] was 3950 ABC and the ABC (Qifikit) [10] was 71 ABC. For the same molecule, the ABC (Qifikit) [11] was over 100000 ABC, the ABC (Qifikit) [12] was 5540 ABC and the ABC (Qifikit) [13] was 55300 ABC. The Antigen binding capacity (Qifikit) [14] was over 100000 ABC and the ABC (Qifikit) [15] was 36800 ABC.

B1: 1613F12 (antibody, V domains shown)
VH: EVHLQQSGAELVKPGASVKLSCTASGFNIRDTYIHWVKQRPEQGLEWIGRLDPANGHTKYGPNFQGRATMTSDTSSNTAYLQLSSLTSEDTAVYYCARGAYYYGSSGLFYFDYWGQGTTLSVSS
VL: DVQITQSPSYLATSPGETITINCRASKSISKYLAWYQEKPGKTNKLLIYSGSTLQSGVPSRFSGSGSGTDFTLTISSLEPEDFAMYFCQQHHEYPLTFGAGTELELK
notes: also called 1613F12 antibody; 1613F12 Mab
In the case of B1, the EC50 (read off the curve) [16] is reported as 1 nM, the concentration above which the plateau is reached [17] is reported as over 420 pM and the “EC50 (read off the curve)” value [18] is reported as about 0.9 nM.

Source: patent US20140141023A1 (PIERRE FABRE MEDICAMENT, published 2014)
